# Patent publication US12458630 (University of California, dated 2025)
# Residue numbers refer to the chain shown, from its start. Names and notes keep the numbering of the source.
# B1: endogenous VAMP8 of MIA PaCa-2 cells (other, human, UniProt Q9BV40 1-100, looked up)
# chain: MEEASEGGGNDRVRNLQSEVEGVKNIMTQNVERILARGENLEHLRNKTEDLEATSEHFKTTSQKVARKFWWKNVKMIVLICVIVFIIILFIVLFATGAFS
# B2: IKKα W651A-Flag (LIR-mutated IKKα) (enzyme)
# chain: MERPPGLRPGAGGPWEMRERLGTGGFGNVCLYQHRELDLKIAIKSCRLELSTKNRERWCHEIQIMKKLNHANVVKACDVPEELNILIHDVPLLAMEYCSGGDLRKLLNKPENCCGLKESQILSLLSDIGSGIRYLHENKIIHRDLKPENIVLQDVGGKIIHKIIDLGYAKDVDQGSLCTSFVGTLQYLAPELFENKPYTATVDYWSFGTMVFECIAGYRPFLHHLQPFTWHEKIKKKDPKCIFACEEMSGEVRFSSHLPQPNSLCSLVVEPMENWLQLMLNWDPQQRGGPVDLTLKQPRCFVLMDHILNLKIVHILNMTSAKIISFLLPPDESLHSLQSRIERETGINTGSQELLSETGISLDPRKPASQCVLDGVRGCDSYMVYLFDKSKTVYEGPFASRSLSDCVNYIVQDSKIQLPIIQLRKVWAEAVHYVSGLKEDYSRLFQGQRAAMLSLLRYNANLTKMKNTLISASQQLKAKLEFFHKSIQLDLERYSEQMTYGISSEKMLKAWKEMEEKAIHYAEVGVIGYLEDQIMSLHAEIMELQKSPYGRRQGDLMESLEQRAIDLYKQLKHRPSDHSYSDSTEMVKIIVHTVQSQDRVLKELFGHLSKLLGCKQKIIDLLPKVEVALSNIKEADNTVMFMQGKRQKEIAHLLKIACTQSSARSLVGSSLEGAVTPQTSAWLPPTSAEHDHSLSCVVTPQDGETSAQMIEENLNCLGHLSTIIHEANEEQGNSMMNLDWSWLTE
# notes: also called LIR-mutated IKKα variant; pCDH-CMV-MCS-EF1-Puro-IKKα W651A-Flag; not shown: Flag tag
# B3: endogenous syntaxin 17 (STX17) of MIA PaCa-2 cells (other, human, UniProt P56962 2-302, looked up)
# chain: SEDEEKVKLRRLEPAIQKFIKIVIPTDLERLRKHQINIEKYQRCRIWDKLHEEHINAGRTVQQLRSNIREIEKLCLKVRKDDLVLLKRMIDPVKEEASAATAEFLQLHLESVEELKKQFNDEETLLQPPLTRSMTVGGAFHTTEAEASSQSLTQIYALPEIPQDQNAAESWETLEADLIELSQLVTDFSLLVNSQQEKIDSIADHVNSAAVNVEEGTKNLGKAAKYKLAALPVAGALIGGMVGGPIGLLAGFKVAGIAAALGGGVLGFTGGKLIQRKKQKMMEKLTSSCPDLPSQTDKKCS
# notes: also called endogenous STX17
# B4: IKKα Y568A-Flag (LIR-mutated IKKα) (enzyme)
# chain: B2 chain with Y568A, A651W
# notes: also called LIR-mutated IKKα variant; pCDH-CMV-MCS-EF1-Puro-IKKα Y568A-Flag; not shown: Flag tag
# Tests used:
# [1] = target: B3; experiment: co-IP with STX17, IKKα-ablated MIA PaCa-2 cells re-expressing wt IKKα (FIG. 14D)
# [2] = target: endogenous LC3 (microtubule-associated protein light chain 3) of MIA PaCa-2 cells (human, UniProt Q9GZQ8 1-120); experiment: co-IP in starved IKKα-ablated MIA PaCa-2 cells (FIG. 14C)
# [3] = target: B4; experiment: as above
# [4] = target: B2; experiment: as above
binder,measurement,setting,value
B1,binding result,[1],binds
B2,binding result,[2],no binding
B3,binding result,[3],no binding
same,binding result,[4],no binding
B4,binding result,[2],no binding
